Measurements published in the nanobody polyreactivity screen of Harvey et al. (2022).

Test: yeast display, Sf9 membrane polyspecificity reagent, FACS + sequencing; frameworks hold sequencing errors
How it was run: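 Nanobodies from a synthetic yeast display library (Saccharomyces cerevisiae BJ5465), induced 36–48 hours with galactose, were stained 1 hour at 4 °C with 10% biotinylated, detergent-solubilized Sf9 membrane reagent, enriched on streptavidin microbeads, then FACS-sorted. Anti-HA (expression) and streptavidin (reagent binding) fluorescence set low and high (top ~1%) gates. Polyreactivity labels come from the gate of origin. Genes were colony-PCR amplified, MiSeq 2 × 250 sequenced and filtered by CDR length.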

Sequence | polyreactivity (PSR sort gate)
QVQLVESGGGLVQAGGSLRLSCAASGGIFTKNAMGWYRQAPGKERELVAGISRTGGNTYYADSVKGRFTISRDNAKNTVYLQMNSLKPEDTAVYYCHWAKWYRYGGYRSRYDYWGQGTQVTVSS | low polyreactivity
QVQLVESGGGLVQAGGSLRLSCAASGSTFYPKAKAWNRQAPGKERELVAGISSGGGTYYADSVKGRFTISRDNAKNTVYLQMNSLKREDTAVYYCNAYFLSSSLDYWGQGTQVTVSS | low polyreactivity
QVQLVESGGGLVQAGGSLRLSCAASGSIFTAYALGWYRQAPGKERELVAAIDDSGDSTYYADSVKGRFTISRDNAKNTVYLQMHSLKPEDTAVNYCKAEYRVNKEYDYWGQGTQVTVSS | low polyreactivity
QVQLVESGGGLVQAGGSLRLSCAASGRIFGKYAMGWYRQAPGKERELVARISFSGGTTYYADSVKGRFTISRDNAKNTVYLQMNSLKQEDTAVYYCNARRVWSQRWAYDSWGQGTQVTVSS | high polyreactivity
QVQLVESGGCLVQAGGSVRLSCDASGITFVGNDMGWYRQAPGKERELVAAISSGSTHYADSVKGRFTISRDNAKNTVYLLMNSLKPEDTAFYYCAADIRGGLSNYSPKDYDYWGLGTQVTVSS | low polyreactivity
QDQLVESGGGLVQAGGSLRLSCAASGSIFGVYAMGWNRQAPGKERELVAAITRGGRTYYADSVKGRFTISRDNAKNTVYLQMNCLKPEDTAVYYCAALPLRERYGYWGQGTQVTVSS | high polyreactivity
QVQLVESGAGLVQDGGSLRLICAASGRTFTPYAMGRYRQAPGKEMEFVAAISIVGRTKYADSVKGRFTISRDNAKNTVYLQMNSLKPEDTEVYYCNAQDSRDRKFYWGYTRGHWGQGTQVTVSS | low polyreactivity
QVQLVESGGGLVQAGGSLRLSCAASGSIFYPYAMGWYRQAPGKERELVAAISSGGRTYYADSVKGRFTISRDNAKNTVYLQMNSLKPEDTAVYYCAARPKAYGRPPGYYWGQGTQVTVSS | high polyreactivity
QVQLVESGGGLVQAGGSLRLSCAASGRIFRSNAMGWYRQAPWKERELVATITSSGGRTYYADSVKGRFTISRDNAKNTVYLQMNSLKPEDTAVYYCIAQQRTRGQKAQWVRDEYWGQGTQVTVSS | low polyreactivity
QVQLVESGGGLVQAGGTLRLSCSASGSIFGIYAMGGYRHAPGKESELVAAITSGGSTYADSVKGRFTISRDNAKNTVYLQMNSLKPVDTAVYFCAAYGRDIGGYDYWGQGSQVTVSS | low polyreactivity
QVQLVESGGGLVQAGGSLRLICAASGLILKYYAMGWYRQAPGKEREFVAAITRRGGITYYADSVKGRFTISRDNAKNTVYLQMNSLKPEDTAVYYCAADPKLGSLAYWRYSYPLYDYWGQGTQVTVSS | low polyreactivity
QVQLVESGGGLVKEGGSLRLSCAASGSIFLQYAMGWYRQAPGKERELVAGISLRGCSTYYADSVKGRFTISRHNAKNTVYLQLNSLKPEDTAVYYCAADVIVTVETYTSGPSFTEYDYWGQGTQVTVSS | low polyreactivity
QVDLVESAGGLVQAGGSLRLSCAASGSIFPGYTMGWYRQAPGQERELVAAISRRGGSTYYADSVKGRFTISRDNAKNTVYLQMNSLIPEDTAVYYCAIVPDYRFEYWGQGSQVTVSS | high polyreactivity
QVHLVESGGGLVQAGGSLRLSSAASGSTFLYYGMGWYRQAPGTERELVATITWRGGRTYYADSVKGRFTISRDNAKNSVYLQMNSLNPEDTAVYYCAARVVGSYLKPYPYGLYYWGQGTQVTVSS | high polyreactivity
QVQLVESGGGLLQAGGSLRLSCAASGRIFAVYAMGWYRQAPGKEREFVAAISYSGGITYYADSVKGRFTISRDNAKNTVYLQMNSLKPEDSAVFYCNSYYYFWGQGTQVTVSS | low polyreactivity
QVQLVESGGGLVQAGGSLRLSCAASGFIFYKNAMGWYRQAAGKERELVASITRTGDSTNYADSVKGRFTISRDNPKNTVYLQLNSLKPEDTAVYYCAKVLRRWPDPAGGMDYWGQGTQVTVSS | high polyreactivity
QVQLVESGGGLVQAGGSLRLRCAASGSIFYRNAMGWYRQAPGTERELVAAISSDGSTNYADSVKGRFSISRDNAKNTVYLQMNSLKPEDTAVYYCNADYVQQVAKYQYGYEYGYWGQGTQVTVSS | low polyreactivity
QVQLVESGGGLVQAGGSLRLSCAASGYIFGYVMGWYRQAPGKERELVAAITYSSGNTYYADSVKGRFTISRDNAKNTVYLQMNSLKPEDTAVYYCAKQAYYKGRLAYGYWGQGTQVTVSS | high polyreactivity
QVQLVESGGGLVQAGGSLRLSCASSGRTFVFYAMGWYRHAPGKERELVAAITSGTSTNYADSVKGRFTISRDNAKNTVYLQMISLKPEDTAVYYCAAYWTDVTYSIGFGYWGQGTQVTVSS | low polyreactivity
QVQLVESGGGLVQAGGSLRLSCAASGLIFYDNMGWYRQAPGKERELVAAISSSGGSTSYADSVKGRFTISRDNAKNTVYLQMNSLKPEDTAVYYCAADSYPAYLGFVGFDYWGQGTQVNVSS | low polyreactivity
QVQLVESGGGLVQAGGSLRLSCAASGNILARGYAMGWYRQAPGKERELVAAITFNDGSTYYADSVKGRFTISRDNAKNTVYLQMNSLKPEDTAVYYCAADFSYVYYLYDYWGQGTQVTVSS | low polyreactivity
QVQLLQTGGGLVQAGGSLRLSCAASGSNFVIYAMGWYIQAPWNERELVATISGGGRTNYADSLKGRFTISRDNAKNTVYLQMNSLKPEDTAVYYCNGDQYGSYLGVGFDYWGQGTQVTVSS | high polyreactivity

Sequence | polyreactivity (PSR sort gate)
QVQLVESGGGLVQAGGSLRLSCAASGSIFGDYAMGWYRQAPGKERELVAAITSSGGITYYADSVKGRFTISLDNAKNTVYLQMKSLNPEDTAVYYCAAYGYGSNYRYTGYYYWGQGTQVTVSS | low polyreactivity
QVQLVESGGGLVQAGGSLRLSCAASGSTFQYNVMGWSRQAPGKERELVAAIRQSGSTTYYADSVKGRFTISRDNAKNTVYLQMNSLKPEDSAVYYCAKRYHNWANSRMDYWGQGSQVTVSS | low polyreactivity
QVQLVESGGGLVQAGGSLRLSCAASGFIFYLYAMGWYRQAPGKERELVAAISSSGGGTYYADSVKGRFTISRDNAKNTVYLQMNSLKPEDTAVYYCNVPLSYRSEYDYWGQGTQVTVSS | high polyreactivity
QVQLVESGGGLVQAGGSLRLSCAASGSTFTGYAMGWYRQAPGKERELVAAISRSGGSTSYADSVKGRFTISRDNAKNTVYLQMNSLKPEDTAVYYCAAQVQGTTRAKQRGGIGELDYWGQGTQLTVSS | low polyreactivity
EDELVESGGGIVQAGGSLRLSCAATGSIIVVNAMVWYRQAPRKERELVAAISRGGITNYADSVKGRFTISRDNAKNTVYLQMNSLKPEDTAVYYCNARGSRWVKPERDYWGQGTQVTVSS | low polyreactivity
QVQLVESGGGLVQAGGSLRLCCAASGRTFPYYALGWYRQAPGKESELVAGITSNAGSTYYADSVKGRFSISRDNAKNTVYLHRHRLKAEDTAVYYCAKYGRATRGLDNYWGQGTQVTVSS | high polyreactivity
QVQLVESGGGLVQAGGSLRLSCAASGGTFRGYVMGWYIQAPGKERELVAAISYSGGTTYYADSVKGRFTISRDNAKNTVYLQMNSLKPEDTAVYYCNKGYRRYEDGATPGYGYWGQGTQVTVSS | high polyreactivity
QVQLVESGGRLVQAGGILRLSCAASGSTFDKNAMGWYRQAPGKERQLVAAINNGGGTTYYADSVKGRFTISRDNAKNTVYLQMNSLKPEDTAVYYCAAVGKAYWSDYQYRYYYWGQGTQVTVSS | low polyreactivity
QVQLVESGGGLVQAGGSLRLSCAASGSTFFTNAMGWYRQAPGKERELVAAINFRGSTYYADSVKGRFTISRDNAKNTVYLQMNSLKPEDTAVYYCATDRQRSYRTVRSPIFNYWGQGTQVTVSS | high polyreactivity
QVQLVESGGGLVQAGGSLRLSCAASGIISIFIVMGGYRQAPGKERELVASITGRGGSTFYADSVKGRFTISRDNAKNTVYLQMNSLKPEDTAVYYCATDTGYTYPVTGLYDYWGQGTQVTVSS | low polyreactivity
QVQLVESGGGLVQAGCSLRISCAASGSIYATKAIGWYRQAPGKERELVASISSGGCSTYYADSVKARFTISRDNAKNTVYLQLNSLKPEDTAVYYCARRIGHGSRPYWLETWRYPYDYWGQGTQVTVSS | low polyreactivity
QVQLVESGGGLVQAGGSLRLSCAASGLTFSVYAMGWSRQAPGKERELVASITRSGGSTYYADSVKGRFTISRDNAKNTVYLQMNSLKPEDTADYYCNADKYYGFDYWGQGTQVTVSS | high polyreactivity
QVQLVESGGGLVQAGGSLRLSCAASASIFYIYGIGWYRQAPGKERELVARISSGDRTNYADSVKGRFTISRDNAKNTVYLHMNSLKAEDTAVYYCNARVSYYLGRYYWGQGTQVTVSS | high polyreactivity
QVQLLESGGGLVQAGGSLRLSCAASGSIFGINAMGWYRQAPGKERELVAAISGSTSRTYYADSVKGRFTISRDNAKNTVYLQMNSLKPEDTAVYYCAVVGLRSVTRRSYYWGQGNQVTVSS | high polyreactivity
QVQLVESGGGLVQAGGSLRLSCAASGIIFSYYTMGWYRQAPGKERELVAAISARGGRTYYADSVKGRFTISRDNAKNTVYLQMNSLKPEDTAVYYCAASWSTEYYWGQGTQVTVSS | high polyreactivity
QVQLVESGGGLVQAGGSLRLSCAASGRIFKDNAMGWYRQAPGKERELVATIDSGGDTNYADSVKGRFTISRDNAKNTVYLQMNSLKPEDTAVYYCNRDSRVLEGDYWGQGTQVTVSS | low polyreactivity
QVQLVESGGGLVQAGGSLRLSCAAYGSTLNRNVMGWYRQAPGKERELVAVITYGVGSTYYADSVKGRFTISRDNAKNTVYLQMNSLKPEDTAVYYCNKDPLVFDYWGQGTQVTVSS | low polyreactivity
QVQLVESGGGLVQAGGSLRLSCAASGSTFAFYDMGWYRQAPGKERELVAAISQSDGDTYYADSVKGRFTISRDNAKNTVYLQMNSLKPEDTAVYYCAAETSHNPEYERGSDYWGQGTQVTVSS | low polyreactivity
QVQLLESGGGLVQAGGSLRESCAASGSMFSHNTMGWYRQAPGKERELVATINWRATYYADSVKGRFTISRDNAKNTVYLQMNSLKPEDTAGYYCNKDRQRYGEDYWGQGTQVTVSS | high polyreactivity
QVQLVESGGGLVQAGGSLRLSCAASGLTFYVYTMGWYSQAPGKEWELVAAISSGTTTHYADSVKGRFTISRDNAMNTVYLQMNSLKPEDTAVYYCGADLYHYSRDGYWGQGTQVTVSS | low polyreactivity
QVQLVESGGGLVQAGGSLRLSCAASGFIFARNAMGWYRQAPGKERELVATITRSSGSTYYADSVKGRFTISRDNAKNTVYLQMNSLKPEDTAVYYCNARLYGTFWGQGTQVTVSS | high polyreactivity
